Residue numbers refer to the chain shown, from its start. Several values for one entry are separate records, joined by “and”; a condition that tells them apart may be missing. Equal entries are not always repeated.
B1: Variant 6A-3 (VHH)
VHH: EVQLVESGGGLVQPGGSLRLSCAASGFTFSPSWMGWFRQAPGKEREFVATINEYGGRNYADSVKGRFTISADNSKNTAYLQMNSLKPEDTAVYYCARVDRDFDYWGQGTLVTVSS
B2: 5A-3 (VHH)
VHH: EVQLVESGGGLVQPGGSLRLSCAASGSIFSIDVMGWFRQAPGKEREFVAGISWSGDSTLYADSVKGRFTISADNSKNTAYLQMNSLKPEDTAVYYCAAFDGYTGSDWGQGTLVTVSS
B3: 7-26 (VHH)
VHH: EVQLVESGGGLVQPGGSLRLSCAASGSTFSINAMGWFRQAPGKEREFVAGITSSGGYTNYADSVKGRFTISADNSKNTAYLQMNSLKPEDTAVYYCAADGVPEYSDYASGPVWGQGTLVTVSS
B4: Variant 3-31 (VHH)
VHH: B3 VHH
B5: 7-37 (VHH)
VHH: B3 VHH with F29L, S53R, G56S, Y57V
B6: 3-31 (VHH)
VHH: B3 VHH
B7: 7-14 (VHH)
VHH: EVQLVESGGGLVQPGGSLRLSCAASGSTFSINAMGWFRQAPGKEREFVAGISRGGTTNYADSVKGRFTISADNSKNTAYLQMNSLKPEDTAVYYCAADGVPEYSDYASGPVWGQGTLVTVSS

Assays:
[1] = target: SARS-CoV-2 S Trimer B.1.1.529 Omicron; experiment: SPR
[2] = target: SARS-CoV-2 S1 Subunit Monomer B.1.1.529 Omicron; experiment: SPR
[3] = target: 178-6; experiment: binding competition
[4] = target: Antibody 178-09_His B.1.1.7 (27080) (SARS-CoV-2, UniProt P0DTC2 14-685); experiment: FACS
[5] = target: Antibody 178-08_His 501.V2 (27079) (SARS-CoV-2, UniProt P0DTC2 14-685); experiment: FACS
[6] = target: 178-6; experiment: competition
[7] = target: Antibody 178-10_His CA_W152C_L452R_D614G (27081) (SARS-CoV-2, UniProt P0DTC2 14-685); experiment: FACS
[8] = target: SARS-CoV-2 S1 Subunit Monomer B.1.617.2 Delta; experiment: SPR

Binder | Kd [1] | Kd [2] | IC50 [3] | IC50 [4] | IC50 [5] | IC50 [6] | IC50 [7] | Kd [8]
B1 | < 0.04 nM | 3.5 nM | – | – | – | – | – | –
B2 | – | – | 0.904 nM | 0.891 nM | 0.587 nM | – | – | –
B3 | – | – | – | 1.42 nM | 0.979 nM | 0.138 nM | 0.56 nM and 0.634 nM | –
B4 | 2.1 nM | – | – | – | – | – | – | 1.1 nM
B5 | – | – | – | 2.82 nM | 2.1 nM | 7.51 nM | – | –
B6 | – | – | – | – | 325 nM | 1.25 nM | 0.629 nM | –
B7 | – | – | – | 2.52 nM | 4.42 nM | 0.682 nM | – | –

— patent US20230265217A1 (published 2023)
